According to patent US20220211037A1, “BIOSENSORS FOR DROUGHT STRESS IN PLANTS” (The Regents of the University of California, priority 2019, published 2022):

Key:
[1] = target: 1:1 mixture of PYL3 containing PYL3-Cy5.5 and PYL3-BHQ3 (Arabidopsis thaliana); assay: calculated from static light scattering of the mixture, 1000 µM ABA
[2] = target: 1:1 mixture of PYL3 containing PYL3-Cy5.5 and PYL3-BHQ3 (Arabidopsis thaliana); assay: Cy5.5 fluorescence of the PYL3-Cy5.5/PYL3-BHQ3 mixture (quenched in dimers), 1.0 µM ABA
[3] = target: 1:1 mixture of PYL3 containing PYL3-Cy5.5 and PYL3-BHQ3 (Arabidopsis thaliana); assay: Cy5.5 fluorescence of the PYL3-Cy5.5/PYL3-BHQ3 mixture (quenched in dimers), 0.1 µM ABA
[4] = target: 1:1 mixture of PYL3 containing PYL3-Cy5.5 and PYL3-BHQ3 (Arabidopsis thaliana); assay: Cy5.5 fluorescence of the PYL3-Cy5.5/PYL3-BHQ3 mixture (quenched in dimers), 100 µM ABA
[5] = target: 1:1 mixture of PYL3 containing PYL3-Cy5.5 and PYL3-BHQ3 (Arabidopsis thaliana); assay: calculated from static light scattering of the mixture, 0.1 µM ABA
[6] = target: 1:1 mixture of PYL3 containing PYL3-Cy5.5 and PYL3-BHQ3 (Arabidopsis thaliana); assay: calculated from static light scattering of the mixture, 100 µM ABA
[7] = target: 1:1 mixture of PYL3 containing PYL3-Cy5.5 and PYL3-BHQ3 (Arabidopsis thaliana); assay: static light scattering of the PYL3-Cy5.5/PYL3-BHQ3 mixture, 100 µM ABA
[8] = target: 1:1 mixture of PYL3 containing PYL3-Cy5.5 and PYL3-BHQ3 (Arabidopsis thaliana); assay: static light scattering of the PYL3-Cy5.5/PYL3-BHQ3 mixture, 40 µM ABA
[9] = target: 1:1 mixture of PYL3 containing PYL3-Cy5.5 and PYL3-BHQ3 (Arabidopsis thaliana); assay: static light scattering of the PYL3-Cy5.5/PYL3-BHQ3 mixture, 0.1 µM ABA
[10] = target: 1:1 mixture of PYL3 containing PYL3-Cy5.5 and PYL3-BHQ3 (Arabidopsis thaliana); assay: Cy5.5 fluorescence of the PYL3-Cy5.5/PYL3-BHQ3 mixture (quenched in dimers), 40 µM ABA
[11] = target: 1:1 mixture of PYL3 containing PYL3-Cy5.5 and PYL3-BHQ3 (Arabidopsis thaliana); assay: calculated from static light scattering of the mixture, 40 µM ABA
[12] = target: 1:1 mixture of PYL3 containing PYL3-Cy5.5 and PYL3-BHQ3 (Arabidopsis thaliana); assay: calculated from static light scattering of the mixture, 1.0 µM ABA
[13] = target: 1:1 mixture of PYL3 containing PYL3-Cy5.5 and PYL3-BHQ3 (Arabidopsis thaliana); assay: static light scattering of the PYL3-Cy5.5/PYL3-BHQ3 mixture, 1000 µM ABA
[14] = target: 1:1 mixture of PYL3 containing PYL3-Cy5.5 and PYL3-BHQ3 (Arabidopsis thaliana); assay: static light scattering of the PYL3-Cy5.5/PYL3-BHQ3 mixture, 1.0 µM ABA
[15] = target: 1:1 mixture of PYL3 containing PYL3-Cy5.5 and PYL3-BHQ3 (Arabidopsis thaliana); assay: Cy5.5 fluorescence of the PYL3-Cy5.5/PYL3-BHQ3 mixture (quenched in dimers), 1000 µM ABA

- PYLs in dimers (hetero- and homodimers, %) [1]: 20%
- PYLs in monomers (%) [1]: 80%
- Fluorescence (measured) [2]: 4290 cps
- Fluorescence (measured) [3]: 3960 cps
- Fluorescence (measured) [4]: 6710 cps
- PYLs in dimers (hetero- and homodimers, %) [5]: 98%
- PYLs in monomers (%) [5]: 2%
- PYLs in dimers (hetero- and homodimers, %) [6]: 32%
- PYLs in monomers (%) [6]: 68%
- Average molar mass (measured, amu) [7]: 34000 amu
- Average molar mass (measured, amu) [8]: 43300 amu
- Average molar mass (measured, amu) [9]: 51100 amu
- Fluorescence (measured) [10]: 5300 cps
- PYLs in dimers (hetero- and homodimers, %) [11]: 68%
- PYLs in monomers (%) [11]: 32%
- PYLs in dimers (hetero- and homodimers, %) [12]: 84%
- PYLs in monomers (%) [12]: 16%
- Average molar mass (measured, amu) [13]: 31100 amu
- Average molar mass (measured, amu) [14]: 47400 amu
- Fluorescence (measured) [15]: 9490 cps
Substance: 1:1 mixture of PYL3 containing PYL3-Cy5.5 and PYL3-BHQ3
